{"source": "patent US20250230251A1", "binders": {"B1": {"name": "P21 (antibody, human IgG1, kappa, V domains shown)", "VH": "QVQLQQSGPGLVKPSETLSLTCTVSGGSISNYYWTWIRQPPGKGLEWIGYISDSGSTNYNPSLKSRVTISVDTSKNQFSLKLSSVTAADTAVYYCARETIVVRGFYFYVMDVWGQGTTVTVSS", "VL": "AIQLTQSPSSLSASVGDRVTITCRASQGISSALAWYQQRPGKAPKLLIYDASNWESGVPSRFSGSGSGTDFTLTISSLQPEDFATYYCQQFNSYPWTFGQGTKVEIKR"}}, "key": {"[1]": {"target": "extracellular matrix (ECM) proteins", "experiment": "ECM (Matrigel) ELISA, 1 µM antibody"}, "[2]": {"target": "extracellular matrix (ECM) proteins", "experiment": "ECM (Matrigel) ELISA, 0.1 µM antibody"}}}
{"binder": "B1", "values": [{"measurement": "ECM score", "setting": "[1]", "result": 1.2}, {"measurement": "ECM score", "setting": "[2]", "result": 1.2}]}
